Data from the DeepSol protein solubility set.

Test: soluble on expression in E. coli; label from the status in PepcDB or PDB records

| Sequence | soluble on expression in E. coli |
| --- | --- |
| GPGSMRCIGMMEELVAEGCSAIKSRHDKTNEELGDLRLQVHQEYLEAFRRLYKTLGQLVYKKEKRLEEIDRNIRTTHIQLEFAIETFDPNAKKHSDAKKELYKLRAQVEEELEMLKDKMAQALEMFGPTEDALNQAGIEFVHPAEEVEDGNLTRRSKMVEYRAHLAKQEEVKIAAEREELKRSKTLQSQQYRGKTVQQITQ | soluble |
| MMSDQKDEEEYSHSSNRSEDEDEERTIDNEINRSPNKSYKLGNIIGNGSFGVVYEAICIDTSEQVAIKKVLQDPQYKNRELMIMKNLNHINIIYLKDYYYTESFKKNEKNIFLNVVMEYIPQTVHKYMKYYSRNNQALPMFLVKLYSYQLCRALSYIHSKFICHRDLKPQNLLIDPRTHTLKLCDFGSAKNLLAGQRSVSYICSRFYRAPELMLGSTNYTTHIDLWSLGCIIAEMILGYPIFSGQSSVDQLVRIIQVLGTPTEDQLKEMNPNYADIKFPDVKSKDLRKVFPKGTPDEAINLITQFLKYEPLKRLNPIEALADPFFDELRDPCIKLPKYIDKLPELFNFCKEEIQEMSMECRRKIIPKNVYEEFLMVDE | not soluble |
| MGHHHHHHGGHMSLQDFKKLPTVLTAEELIDKIFRRAARVEGRNPKEKALNKLATISNVSRDYFGKIIGAHPSYENLPDFYREMVDVVVGIRQLKKSLVALKWADGMIQKVVSRAVREVKGGKNPSAVVKSAYGRVASIIEQIDDELRFLNDAKNRMREIPILQDLPTIVVAGYPNVGKSSLVARISTVKPEVASYPFTTKKINLGFAEFAGKRVQIIDTPGLLDRPLSKRNRIERRAVLALKHLADIILFVIDPTETCGYSLEKQLSLLEEIKGYFAKPTVEVYSKADMHDRRDRQAYSAVTGEGIDELIKEIEKMVKIHSQTSTVIAPSGQTSTQEQHSEGGS | soluble |
| MGSDKIHHHHHHMQENRYNTCDRFLGGLEKDFIITEQIEDSPLTSEPSFLDYGIIAVCNRGSAIIHLLDNKHVWNKNELIFLFPRQLCSMRNVSEDFSAKFIIIPHVLHGDVLSSLRHFDPGFHFFVKDHFYYNIEDNNGIERFQSFCKLIENELERYRGNGLLRERIICYLGIFYMDVYDYYVKVRKKIPFRTSLRKEQLIYDFCSLVAENFKNHKNVGFYADKLNITTTYLSAIMNERCGISAKEFLSIYIVLEVKSLLRDSRLNIQEIAILTNFPSQSTLNRFFRQRTGMTLSQYRKHIFST | not soluble |
| GDAFCNPQATMDFLRFKLHQHQREVFAVMMLDSQHRLIEFNEMFFGTIDSASVYPREVVKAVLLCNAAAVIFAHNHPSGCAEPSSADRRITERLIAALATIDVPVLDHIVVADTCVSFAERGLL | not soluble |
| MTGPTPTEAVDITVSVGGFKVGDQNYPINPKITFTNNTGQAIPGGTEFQFDIPVSAPDNAKDQSGGGLKVIASGHTRANNIGGLDGVMHRVSFSLPAWKDLPAGGTYELDMVYYLPISGPANYSVISGGKEFAFKFEQPDLPIGDLNAGTGGGGTTEPGSCDTAGLVTYPNLPQTDLEHHHHHH | soluble |
| MRDYVEIGMGREARRTYHLDSVAIVPSRRTRSSKDVDTTWHIDAYTFDIPFMSHPTDALATPDFVIEMDKQGGLGVINAEGLWGRHADLDAAIQEVITAYGDDELDLGSCNRATKKLQELHAAALDTELLVERIAQVRSSGAT | not soluble |
| MTLPRLILPLLIAAACALGGCAYNPDLGRDQLLIVNDNNLARDGEKAWADALRTSHVSKEPRKNARVQAVGQRVIVAAGLAGRPWEYAVFLEEAPNAFVLPGGYVGVTVGLLSLVENDDQLAAVIGHEAGHVVARHAAERVSQETTSKVLLGIAKAAAGGTEFGKLLKDHGEDATRYGLLLPFSRKQELEADKLGVDFMQRAGYRPREAVKLWRNMQALDGGKSGGDLGSTHPSDAVRIQELERYLASKGWLEHHHHHH | not soluble |
| MTVTDHILPTATNGRPPGLIIAAPSTNSGKTTVTLALHAALRRRSLTVQPYKCGPDYIDPAFHEIAAGRPCYNLDSWAFGQDRITYLLDAAAGADLCLAEGVMGLFDGGSARGAWGNGATADIAAFTGWPVVLVIDVAGQAQSAAALALGFARYRSDVRIAGVILNNVASARHEALVRDGFAAQDIPVLGGFERQRDLTLKNRHLGLVQARETARLDIRLQQLADSAVRGIDLDALIRAAQPARPIASTIRPLTPPGQRIALAHDDAFSFIYPHLTAGWRAAGAEIVPFSPLNDEGPDPSCDAAWLPGGYPELHAGRLAAATRFKAALGAFAETRAVHGECGGYMTLGAGLIDADGTRHAMAGLLGLETDFASRKLHLGYRLATLHADAAGKAAGSVLRGHEYHYARVVTVADEPLAEIRDPAGQLTDETGSRRGHVTGTFFHLIDVAEEAIALEHHHHHH | not soluble |
| MAKGDPKKPKGKMSAYAFFVQTCREEHKKKNPEVPVNFAEFSKKCSERWKTMSGKEKSKFDEMAKADKVRYDREMKDYGPAKGGKKKKDPNAPKRPPSGFFLFCSEFRPKIKSTNPGISIGDVAKKLGEMWNNLNDSEKQPYITKAAKLKEKYEKDVADYKSKGKFDGAKGPAKVARKKVEEEDEEEEEEEEEEEEEEDE | soluble |
| MRVLYERCCGLDVHKKSITACVLTPEGKEIRTFGTMTDDLEELVEWLKQKQVTHVAMESTGVYWKPIYNLLEAEPIDVLVVNAQHIKAVPGRKTDVKDAEWIADLLRHGLLRGSYIPDRAQRELRELVRYRRSLIEERARELNRIQKVLEGANIKLASVVSDINGVSAQQILRALIEGTDDPAVLAQLAKGRLKQKIGELRRALKGIMGPHQRMMLAEQCRHIEYLDEAIARLSREIEERTRPFHEVLELMETIPGVGRQSAEQIIAEIGTDMSRFPTAAHVASWAGMAPGNHESAGKRLSGRTRKGNKKLRACLVECARAAARTKNTYLSAKYHRIAKRRGANRASVAVGRTILEIIYSVLTRKAPYRELGADYWDQQREAAIVRQTVKRLEGLGYEVKLEKTSA | not soluble |
| METRRIRKVLVANRGEIAIRVFRACTELGIRTVAIYSKEDVGSYHRYKADEAYLVGEGKKPIEAYLDIEGIIEIAKAHDVDAIHPGYGFLSENIQFAKRCREEGIIFIGPNENHLDMFGDKVKARHAAVNAGIPVIPGSDGPVDGLEDVVAFAEAHGYPIIIKAALGGGGRGMRIVRSKSEVKEAFERAKSEAKAAFGSDEVYVEKLIENPKHIEVQILGDYEGNIVHLYERDCSVQRRHQKVVEVAPSVSLSDELRQRICEAAVQLMRSVGYVNAGTVEFLVSGDEFYFIEVNPRIQVEHTITEMITGIDIVQSQILIADGCSLHSHEVGIPKQEDIRINGYAIQSRVTTEDPLNNFMPDTGKIMAYRSGGGFGVRLDAGNGFQGAVITPYYDSLLVKLSTWALTFEQAARKMLRNLREFRIRGIKTNIPFLENVVQHPKFLSGEYDTSFIDTTPELFVF | soluble |
| MSVYTTAQLLAVNEKKFKFDPLFLRIFFRETYPFSTEKVYLSQIPGLVNMALYVSPIVSGKVIRSRGGSTSEFTPGYVKPKHEVNPLMMTLRLPDEDPQNVADPVYRRRRIILQNMKDEELAIAQVEEKQAVSAVLSGKYTMTGEAFEPVEVDMGRSAGNNIVQAGAAAWSTRDKETYDPTDDIEAYALNARGVVNIIVFDPKGWALFRSFKAVEKKLDTRRGSNSELETAVKDLGMAVSYKGMFGDVAIVVYSGQYVENDVKKNYLPDLTMVLGNTQARGLRTYGCILDADAQREGIDAST | not soluble |
| MNNKEKGDFGEKVAVNYLLSKGAKILEKNYRLKIGEIDIIAKMEDEIIFVEVKSRSNIKFGYPCESVSFKKRKKIIGVASYYIIKNNLNNTPIRFDVIEVYLLEKRINHIMNAF | not soluble |
| SLYDGDCPLCMREVNMLMERNEKHGTIKFVDISSNDYSPEDNQGLDYKTVMGQIHAIQSDGNVVKGVEAFRRLYEEVGLGWVYTITKFEPIGKLADVVYDVWAKYRLQVTGRPSIEAILEARKKDKVGNKGYRFSVVVTFAR | soluble |
| MSRPDQAKVTVAKGDIKAIAAALDMYKLDNFAYPSTQQGLEALVKKPTGNPQPKNWNKDGYLKKLPVDPWGNPYQYLAPGTKGPFDLYSLGADGKEGGSDNDADIGNWDN | soluble |
| GPGSMSLKVNILGHEFSNPFMNAAGVLCTTEEDLRRMTESESGSLIGKSCTLAPRTGNPEPRYFGLPLGSINSMGLPNLGVDFYLSYAAQTHDYSRKPLFLSMSGLSVEESVEMVKKLAPITKEKGTILELNLSCPNVPGKPQVGYDFDTTRTYLQKVSEAYGLPFGVKMPPYFDIAHFDMAAAVLNDFPLVKFITCVNSIGNGLVIDPANETVVIKPKQGFGGLGGKYVLPTALANVNAFFRRCPDKLVFGCGGVYSGEEAFLHILAGASMVQVGTALHDEGPIIFARLNKELQEIMTNKGYKTLDEFRGRVKTMD | soluble |
| MIVNRNPFEQLPSLAINPEDFDVLYSAETFRTRLLDAISKATSRIYLVALYLEDDEAGREILTALYEAKQRNPGLDINICVDWHRAQRGLIGAETSEGNSALYKAFADQYQHAIPVYGIPVRGREVFGVLHLKGFVVDDTVIYSGASLNNVYLQYHGRYRFDRYHVIKHKSLADTMVNFVQNEMIAHPAVNDLADRDKPETKEIKSAIRQLRSSLAQANYQFAHEAAAEDKVKITPLVGLGKRRNLLNQQIVKLLAAAQNEIFICTPYFNFPKSIHREVKRAMKRGVKVTIVVGDKTANDFYISPEEDFKTIGGLPYLYEVNLRRFAKANEANIAARKLSVHLWKHENNSFHLKGIWVDKRYMLLTGNNLNPRAWSLDLENGLLIQDDYANLTHKFEDEVARILEHTQLICTYKQLEKVEDYPLAVQKLVRKITRLKADGVLKRILLEHHHHHH | soluble |
| MMQISDTYNQKHSLFNAMNRFIGAVNNMDQTVMVPSLLRDVPLDMEVKDEVHNTIGATNYFSRTDMHGYYILLKSIRNDIEWGVVQGEDRKKDKLSNMEISRLEDGDGEEDLEKQFHYHLSGLHTVLNKLTRKAHILTNRYKEEIGFGSWGH | not soluble |
| MSLEIKFLSLCILAGVLFVSQVNASANNGKDDVKYAALTQKDLDALPVEKRASVLDELGFIHEYGLSVPMNRERALQYYKQACELGGNYGCYNVKYAYQYGDGVAKDSAQANKYAKKMNLDNLLIEQEYIDKFSQEIYMAKALADTDKSQRAAFISILIHALNNRPESDALFFSRIGFNQEKTFRLATLWSQDGDPQMDYQMGRLTLNDFSGRYADEPYQARPASLKWFRAAAEKGVVEAQSLLGGIYSGGEGDEWGIKPDIQEAQKWYGQAAKQGDSDAQIALGKIYYSGATGRTDYAKALALFTQVENDGTNSRSTMPLSWMYYNGLGTAPDCDKAWSYYKKASRYVGKKVEEGHHHHHH | not soluble |
| MEKKHIYLFCSAGMSTSLLVSKMRAQAEKYEVPVIIEAFPETLAGEKGQNADVVLLGPQIAYMLPEIQRLLPNKPVEVIDSLLYGKVDGLGVLKAAVAAIKKAAAN | soluble |
| MSLQDVDFHIPFPSRRSPDFERARADHLSWPRALGLIGTDAAAERHSRGGYADLAARFYPSATGADLDLGVDLMSWFFLFDDLFDGPRGEDPQETRKLTDAVAAALDGPLPTSAPPIAHGFADVWRRTCQGMSPAWRARSARHWRNYFSGYVDEAVSRHLNTPYDSAGHYLAMRRQTIGVQPTVDLAERSCHCEVPQRVFDSAVLFAMLQIATDTNLILNDIASLEKEEARGELNNMVFILMREHGWTRGRSIAHMQDGVRTRLEQFLLLEACLPKVYDTFELTAQERESAEKYRMDGVRSVIRGSYDWHRSSGRYAADYAEGHHHHHH | soluble |
